Molecular target: human GPC3 on cells (human) (UniProt P51654)
Test: cell-based or functional assay

Binder	IC50 (M), Incucyte human TDC HepG2-Nuclight green assay, E:T 15:1, 72 h [M]	HepG2 on Incucyte IC50 (M), human TDC, E:T 15:1, 60 h [M]	Huh7 on xCELLigence IC50 (M), human TDC, E:T 15:1, 60 h [M]	IC50 (M), Incucyte human TDC HepG2-Nuclight green assay, E:T 15:1 (Step 2) [M]	Max % Killing, Incucyte human TDC HepG2-Nuclight green assay, 72 h [%]	HepG2 on Incucyte Max % killing, 60 h [%]	Huh7 on xCELLigence Max % killing, 60 h [%]	Max % Killing, Incucyte human TDC HepG2-Nuclight green assay (Step 2) [%]
A022600102 (protein) DVQLVESGGGVVQPGGSLRLSCVASGYVHKINFYGWYRQAPGKEREKVAHISIGDQTDYADSAKGRFTISRDESKNTVYLQMNSLRPEDTALYYCRALSRIWPYDYWGQGTLVTVSSAAAEVQLVESGGGLVQPGGSLRLSCVASGFTFSSFAMTWVRRPPGKGLEWVATITNGGVTSYRDSVKGRFTISRDNAKNTLYLEMTSLNPEDTAVYICANARRTGPRAPTDIGSYRGQGTLVTVSSGGGGSGGGGSGGGGSGGGGSGGGGSGGGGSGGGGSEVQLVESGGGVVQPGGSLRLSCAASGFTFRSFGMSWVRQAPGKGPEWVSSISGSGSDTLYADSVKGRFTISRDNSKNTLYLQMNSLRPEDTALYYCTIGGSLSRSSQGTLVTVSSA	1.72e-09				94			
A022600103 (protein) DVQLVESGGGVVQPGGSLRLSCVASGYVHKINFYGWYRQAPGKEREKVAHISIGDQTDYADSAKGRFTISRDESKNTVYLQMNSLRPEDTALYYCRALSRIWPYDYWGQGTLVTVSSGGGGSEVQLVESGGGLVQPGGSLRLSCVASGFTFSSFAMTWVRRPPGKGLEWVATITNGGVTSYRDSVKGRFTISRDNAKNTLYLEMTSLNPEDTAVYICANARRTGPRAPTDIGSYRGQGTLVTVSSGGGGSGGGGSGGGGSGGGGSGGGGSGGGGSGGGGSEVQLVESGGGVVQPGGSLRLSCAASGFTFRSFGMSWVRQAPGKGPEWVSSISGSGSDTLYADSVKGRFTISRDNSKNTLYLQMNSLRPEDTALYYCTIGGSLSRSSQGTLVTVSSA	2.04e-09	1.23e-09	7.11e-09	5.43e-10	92	96	71	90
A022600104 (protein) DVQLVESGGGVVQPGGSLRLSCVASGYVHKINFYGWYRQAPGKEREKVAHISIGDQTDYADSAKGRFTISRDESKNTVYLQMNSLRPEDTALYYCRALSRIWPYDYWGQGTLVTVSSGGGGSGGGSEVQLVESGGGLVQPGGSLRLSCVASGFTFSSFAMTWVRRPPGKGLEWVATITNGGVTSYRDSVKGRFTISRDNAKNTLYLEMTSLNPEDTAVYICANARRTGPRAPTDIGSYRGQGTLVTVSSGGGGSGGGGSGGGGSGGGGSGGGGSGGGGSGGGGSEVQLVESGGGVVQPGGSLRLSCAASGFTFRSFGMSWVRQAPGKGPEWVSSISGSGSDTLYADSVKGRFTISRDNSKNTLYLQMNSLRPEDTALYYCTIGGSLSRSSQGTLVTVSSA	2.13e-09				90			
A022600096 (protein) DVQLVESGGGLVQPGGSLRLSCVASGYVHKINFYGWYRQAPGKEREKVAHISIGDQTDYADSAKGRFTISRDESKNTVYLQMNSLRPEDTALYYCRALSRIWPYDYWGQGTLVTVSSGGGGSGGGGSGGGGSGGGGSGGGGSGGGGSGGGGSEVQLVESGGGLVQPGGSLRLSCVASGFTFSSFAMTWVRRPPGKGLEWVATITNGGVTSYRDSVKGRFTISRDNAKNTLYLEMTSLNPEDTAVYICANARRTGPRAPTDIGSYRGQGTLVTVSSGGGGSGGGGSGGGGSGGGGSGGGGSGGGGSGGGGSEVQLVESGGGVVQPGGSLRLSCAASGFTFRSFGMSWVRQAPGKGPEWVSSISGSGSDTLYADSVKGRFTISRDNSKNTLYLQMNSLRPEDTALYYCTIGGSLSRSSQGTLVTVSSA	1.4e-09				72			

The next lines start with results.

IC50 (M), Incucyte human TDC HepG2-Nuclight green assay, E:T 15:1, 72 h [M]	HepG2 on Incucyte IC50 (M), human TDC, E:T 15:1, 60 h [M]	Huh7 on xCELLigence IC50 (M), human TDC, E:T 15:1, 60 h [M]	IC50 (M), Incucyte human TDC HepG2-Nuclight green assay, E:T 15:1 (Step 2) [M]	Binder	Max % Killing, Incucyte human TDC HepG2-Nuclight green assay, 72 h [%]	HepG2 on Incucyte Max % killing, 60 h [%]	Huh7 on xCELLigence Max % killing, 60 h [%]	Max % Killing, Incucyte human TDC HepG2-Nuclight green assay (Step 2) [%]
	5.3e-10	2.61e-10	4.45e-10	A022600122 (protein) DVQLVESGGGVVQPGGSLRLSCVASGYVHKINFYGWYRQAPGKEREKVAHISIGDQTDYADSAKGRFTISRDESKNTVYLQMNSLRPEDTALYYCRALSRIWPYDYWGQGTLVTVSSGGGGSEVQLVESGGGLVQPGGSLRLSCVASGFTFSSFAMTWVRRPPGKGLEWVATITNGGVTSYRDSVKGRFTISRDNAKNTLYLEMTSLNPEDTAVYICANARRTGPRAPTDIGSYRGQGTLVTVSSGGGGSGGGGSGGGGSGGGGSGGGGSGGGGSGGGGSEVQLVESGGGLVQPGGSLRLSCVASGSIFRSVFSSSTMEWYRQPPGKKRELVARIAPGDGTNYGALYADSVKGRFTISRDDAKKTVDLQMNSLKPEDTGVYFCASGVAWGQGTLVTVSSGGGGSGGGGSGGGGSGGGGSGGGGSGGGGSGGGGSEVQLVESGGGVVQPGGSLRLSCAASGFTFRSFGMSWVRQAPGKGPEWVSSISGSGSDTLYADSVKGRFTISRDNSKNTLYLQMNSLRPEDTALYYCTIGGSLSRSSQGTLVTVSSA		93	101	92
2.14e-09				A022600105 (protein) DVQLVESGGGVVQPGGSLRLSCVASGYVHKINFYGWYRQAPGKEREKVAHISIGDQTDYADSAKGRFTISRDESKNTVYLQMNSLRPEDTALYYCRALSRIWPYDYWGQGTLVTVSSGGGGSGGGGSGGGGSGGGGSEVQLVESGGGLVQPGGSLRLSCVASGFTFSSFAMTWVRRPPGKGLEWVATITNGGVTSYRDSVKGRFTISRDNAKNTLYLEMTSLNPEDTAVYICANARRTGPRAPTDIGSYRGQGTLVTVSSGGGGSGGGGSGGGGSGGGGSGGGGSGGGGSGGGGSEVQLVESGGGVVQPGGSLRLSCAASGFTFRSFGMSWVRQAPGKGPEWVSSISGSGSDTLYADSVKGRFTISRDNSKNTLYLQMNSLRPEDTALYYCTIGGSLSRSSQGTLVTVSSA	85			
			4.44e-10	A022600131 (protein) DVQLVESGGGVVQPGGSLRLSCVASGYVHKINFYGWYRQAPGKEREKVAHISIGDQTDYADSAKGRFTISRDESKNTVYLQMNSLRPEDTALYYCRALSRIWPYDYWGQGTLVTVSSGGGGSEVQLVESGGGLVQPGGSLRLSCVASGFTFSSFAMTWVRRPPGKGLEWVATITNGGVTSYRDSVKGRFTISRDNAKNTLYLEMTSLNPEDTAVYICANARRTGPRAPTDIGSYRGQGTLVTVSSGGGGSGGGGSGGGGSGGGGSEVQLVESGGGLVQPGGSLRLSCVASGSIFRSVFSSSTMEWYRQPPGKKRELVARIAPGDGTNYGALYADSVKGRFTISRDDAKKTVDLQMNSLKPEDTGVYFCASGVAWGQGTLVTVSSGGGGSGGGGSGGGGSGGGGSGGGGSGGGGSGGGGSEVQLVESGGGVVQPGGSLRLSCAASGFTFRSFGMSWVRQAPGKGPEWVSSISGSGSDTLYADSVKGRFTISRDNSKNTLYLQMNSLRPEDTALYYCTIGGSLSRSSQGTLVTVSSA				94

From patent US20240092919A1
